Source: patent publication US5821227A, “Modulators of cytokines of the tgf β superfamily” (Mount Sinai Hospital Corporation, priority 1995, dated 1998)
Like-named read-outs stand apart in the source and are kept apart here.

Assays:
[1] = target: T1, TGF-β1 (Homo sapiens, UniProt P01137); assay: Mv1Lu growth inhibition assay: neutralization of the antiproliferative activity of TGF-β1 (3H-thymidine incorporation); format: cell-based; conditions: Mv1Lu cells; for IC50 / Maximal effect, percent neutralization: TGF-β1 12 pM; for IC50: 3H-thymidine incorporation, read-out: half-maximal inhibition (IC50) of the anti-proliferative activity of TGF-β1; for Maximal effect, percent neutralization: 0% = TGF-β1 alone, 100% = no additions
T1 construct: purchased Collaborative Research (Bedford, Mass.)
Experimental: Mv1Lu cells were seeded at 20,000 cells/well in a 96 well plate containing 0.2% FCS in α-MEM and incubated with the indicated concentrations of proteins for 18 hr. […] Before use, bovine thyroglobulin was spun twice in a centricon (M.W. cutoff of 10,000 Da) micro-concentrator (Amicon, Beverly, Mass.) to remove any excess Iodine and T3/T4 thyroid hormones.

[2] = target: T1, TGF-β1; assay: BIAcore surface plasmon resonance binding to immobilized TGF-β1; conditions: for binding to immobilized TGF-β1 (in words): BIAcore sensorgram
Experimental: (§1) In this system, a purified protein serving as the ligand is covalently coupled to a carboxymethylated dextran surface, and binding molecules (ie. the analyte) are passed in a fluid phase across the surface. Binding of the analyte to ligand causes a change in reflected light which is directly proportional to mass bound, and is measured in arbitrary response units (R.U.). Analyte-ligand binding is observed as both increasing response with time during the injection of analyte, and the difference in the position of the baseline before and after injection.
(§2) Schuster, R. V. Swanson, L. A. Alex, R. B. Bourret, M. I. Simon, Nature 365, 343 (1993). 1000 R.U. equals approximately 1 ng/mm^2. The running buffer was 20 mM Hepes (pH7.2), 150 mM NaCl and the flow rate for all sensorgrams was 3 μl/min. Injection volumes were 36 μl for FIG. 2, 4 and 5 and 45 μl for FIG. 3. […] Protein concentrations in each experiment were (FIGS. 2 and 3), 2, 5, 10, 20, 30, 40 μM; (FIG. 4), 0.21, 0.31, 0.41, 0.62, 0.82, 1.24 μM; (FIG. 5), 0.22, 0.29, 0.44, 0.59, 0.88 μM. R.U. for the immobilized cytokine in each experiment was 2850 R.U. for FIGS. 2 and 3; 7450 R.U. for FIG. 4, and 5300 R.U., for FIG. 5 respectively.
(§3) Data was analyzed using the BIA-evaluation software (Pharmacia Biosensor). The association rate constant, kass, was calculated by first plotting the change in response with time versus response (ie. dR/dT vs R). When the slope of the line from this graph is plotted versus analyte concentration (i.e d(dR/dT)/dR vs C), kass is obtained from the slope of the line. The dissociation rate constant, kdiss, is obtained during the decrease in response with time after analyte injection is discontinued. Specifically, kdiss was obtained from the slope of the line in a plot of ln(Rt1 /Rtn) vs time. The affinity constants were calculated from KD =kdiss /kass. Variance for kass is standard error of the linear regression plot, and for kdiss values are the mean±range of 3 or more independent injections.

[3] = target: T2, TGF-β2 (Homo sapiens, UniProt P61812); assay: BIAcore surface plasmon resonance binding to TGF-β2; conditions: ligand TGF-β2; for Kd: KD = kdiss/kass; for kass: ± standard error of linear regression
T2 sequence (P61812 303-414 limits assumed): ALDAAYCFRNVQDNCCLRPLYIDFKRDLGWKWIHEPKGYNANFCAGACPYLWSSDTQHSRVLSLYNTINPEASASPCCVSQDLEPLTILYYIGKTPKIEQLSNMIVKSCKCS
Experimental: as §1, §2, §3

[4] = target: T3, BMP-2 (Homo sapiens, UniProt P12643); assay: BIAcore surface plasmon resonance binding to immobilized BMP-2; conditions: for Kd: ligand BMP-2, KD = kdiss/kass; for kdiss / kass: ligand BMP-2 immobilized; for kass: ± standard error of linear regression
T3 construct: purchased Genetics Institute, Cambridge, Mass; (a gift, not bought)
T3 sequence (P12643 283-396): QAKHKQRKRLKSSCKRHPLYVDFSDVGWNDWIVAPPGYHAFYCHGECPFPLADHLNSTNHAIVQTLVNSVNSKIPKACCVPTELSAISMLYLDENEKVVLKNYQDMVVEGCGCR
Experimental: as §1, §2, §3

[5] = target: T4, BMP-4 (Homo sapiens, UniProt P12644); assay: BIAcore surface plasmon resonance binding to immobilized BMP-4; conditions: ligand BMP-4; for Kd: KD = kdiss/kass
T4 sequence (P12644 293-408): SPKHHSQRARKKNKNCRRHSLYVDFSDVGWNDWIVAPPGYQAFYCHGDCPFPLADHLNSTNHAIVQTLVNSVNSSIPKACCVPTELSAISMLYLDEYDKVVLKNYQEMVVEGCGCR
Experimental: as §1, §2, §3

[6] = target: T5, BMP-6 (Homo sapiens, UniProt P22004); assay: BIAcore surface plasmon resonance binding to immobilized BMP-6; conditions: ligand BMP-6
T5 sequence (P22004 375-513): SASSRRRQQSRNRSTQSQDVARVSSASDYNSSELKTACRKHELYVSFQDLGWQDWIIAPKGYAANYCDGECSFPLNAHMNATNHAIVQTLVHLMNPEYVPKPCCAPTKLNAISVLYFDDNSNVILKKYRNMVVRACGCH
Experimental: as §1, §2, §3

[7] = ligand TGF-β1 immobilized, ± standard error of linear regression
[8] = ± standard error of linear regression
[9] = ligand TGF-β1, KD = kdiss/kass, read-out: KD

T1 sequence (P01137 279-390 limits assumed): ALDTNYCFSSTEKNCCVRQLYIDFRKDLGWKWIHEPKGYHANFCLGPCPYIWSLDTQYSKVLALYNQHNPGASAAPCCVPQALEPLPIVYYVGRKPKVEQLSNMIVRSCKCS

Compound	IC50 [1] [nM]	Maximal effect, percent neutralization [1]	kdiss (dissociation rate) ([2]; ligand TGF-β1 immobilized) [s⁻¹]	kass (association rate) [2, 7] [M⁻¹ s⁻¹]	kdiss [3] [s⁻¹]	Kd [3] [nM]	kass [3] [M⁻¹ s⁻¹]	Kd [4] [nM]	kdiss [4] [s⁻¹]	kass [4] [M⁻¹ s⁻¹]	kdiss [5] [s⁻¹]	Kd [5] [nM]	binding to immobilized TGF-β1 (in words) [2]	Kd [2, 9] [nM]	other results
Fetuin: Bovine fetuin, glycoprotein from fetal calf serum (ammonium sulfate fractionation, gel filtration), purchased from Sigma	4200	approximately 150%	0.0016	670 ± 400	0.0032	5800	550 ± 120	36	6.2e-05	1700 ± 300	0.00058	140	–	–	Kd ([2]; ligand TGF-β1, steady-state, read-out: KD, Scatchard type analysis for steady-state binding): 4600 nM; kdiss ([4]; listed as fetuin): 6.2e-05 s⁻¹; kass ([4]; listed as fetuin): 1700 M⁻¹ s⁻¹; kdiss [6]: 0.0025 s⁻¹; Kd ([6]; KD = kdiss/kass): 860 nM; kass [6, 8]: 2900 ± 500 M⁻¹ s⁻¹
reduced and alkylated fetuin: Fetuin, reduced and alkylated, compared to native fetuin	–	–	–	–	–	–	–	–	–	–	–	–	diminished binding	–	binding to immobilized BMP-2 (in words) ([4]; BIAcore sensorgram): diminished binding
CC[C@H](C)[C@@H]1NC(=O)[C@H](CC(N)=O)NC(=O)[C@H](CCC(=O)O)NC(=O)[C@H](CC(=O)O)NC(=O)[C@H](CC(N)=O)NC(=O)[C@H](CCCCN)NC(=O)[C@H](CCCNC(=N)N)NC(=O)[C@H](Cc2c[nH]c3ccccc23)NC(=O)[C@H](C(C)C)NC(=O)[C@H](C)NC(=O)[C@H](C(C)C)NC(=O)[C@@H](N)CSSC[C@@H](C(=O)N[C@@H](Cc2c[nH]cn2)C(=O)N[C@@H](CC(=O)O)C(=O)O)NC(=O)[C@H](C(C)C)NC(=O)[C@H]([C@@H](C)O)NC(=O)[C@H](CCC(=O)O)NC(=O)[C@H](CC(C)C)NC(=O)[C@H]([C@@H](C)O)NC1=O [TRH1b (TβRII)]	–	–	–	–	–	–	–	–	–	–	–	–	–	–	koff ([2]; ligand TGF-β1 immobilized, read-out: kdiss (dissociation rate)): 0.0019 s⁻¹; kon ([2]; ligand TGF-β1 immobilized, ± standard error of linear regression, read-out: kass (association rate)): 3700 M⁻¹ s⁻¹
Thyroglobulin: Bovine thyroglobulin purchased from Sigma, containing the TRH1 domain	220	approximately 150%	0.0019	2800 ± 1000	0.005	3800	1300 ± 600	3.1	0.0001	32000 ± 2000	0.0011	20	–	680	IC50 for inhibition of TGF-β1 activity, fold lower than for fetuin [1]: 20 fold; kass [5, 8]: 54000 ± 7000 M⁻¹ s⁻¹
CC[C@H](C)[C@H](NC(=O)[C@H](CC(N)=O)NC(=O)[C@H](CCC(=O)O)NC(=O)[C@H](CC(=O)O)NC(=O)[C@H](CC(N)=O)NC(=O)[C@H](CCCCN)NC(=O)[C@H](CCCNC(=N)N)NC(=O)[C@H](Cc1c[nH]c2ccccc12)NC(=O)[C@@H](NC(=O)[C@H](C)NC(=O)[C@@H](NC(=O)[C@@H](N)CSCC(N)=O)C(C)C)C(C)C)C(=O)N[C@H](C(=O)N[C@@H](CC(C)C)C(=O)N[C@@H](CCC(=O)O)C(=O)N[C@H](C(=O)N[C@H](C(=O)N[C@@H](CSCC(N)=O)C(=O)N[C@@H](Cc1c[nH]cn1)C(=O)N[C@@H](CC(=O)O)C(=O)O)C(C)C)[C@@H](C)O)[C@@H](C)O [TRH1b (TβRII) (reduced & alkylated)]	–	–	–	–	–	–	–	–	–	–	–	–	–	> 10000	–
human transferrin: Non-binding control passed over immobilized TGF-β1 [reference compound]	–	–	–	–	–	–	–	–	–	–	–	–	non-binding	–	–
